Like-named read-outs stand apart in the source and are kept apart here.

Test [1] deals with RBD protein (K417N, N501Y, E484K).
The target in test [2] is RBD protein (L452R, E484Q).
For test [3], the target named is RBD protein (L452R, E484Q). This is another data set of the same source.

In test [1], “MM43 neutralizing monoclonal antibody (Beijing Sino Biological Ltd. Co., article number 40591-MM43)” yielded an EC50 (read off the curve) of 0.7 µg/mL.

As to “MM57 neutralizing monoclonal antibody (Beijing Sino Biological Ltd. Co., article number 40592-MM57)”, in test [2], the EC50 (read off the curve) is 0.2 µg/mL. For the substance “R001 neutralizing monoclonal antibody (Beijing Sino Biological Ltd. Co., article number 40592-R001)”, the EC50 (read off the curve) in test [3] was determined as 0.2 µg/mL.

The record behind these values is US20240325520A1.
